Assay [1] addresses mGluR5 (endogenous, mouse) (mouse (endogenous in brain, spinal cord and cultured cortical neurons)) (UniProt Q3UVX5). Nature of the assay: co-IP.
Assay [2] deals with Homer (pan-Homer immunoprecipitation), DIV 14 cortical neurons (Figure 5c) (mouse (endogenous in cultured cortical neurons)). The assay is described as follows: co-IP.

As for ERK1/2, mouse forebrain (Figure 5b), the co-IP in Preso1^−/− brain, % of WT in assay [1] was 64.4 % of WT.

In assay [2], “mGluR5 (endogenous, mouse) (from UniProt Q3UVX5 19-1203) (receptor)” had a co-IP in BDNF-treated Preso1^−/− neurons, % of untreated WT of 69.8%; a co-IP in DHPG-treated Preso1^−/− neurons, % of untreated WT of 54%; a co-IP in WT neurons after BDNF 30 min, % of untreated of 158%; a co-IP in WT neurons after DHPG 30 min, % of untreated (% of untreated) of 157. In assay [2], the co-IP in untreated Preso1^−/− neurons, % of untreated WT (BDNF series) is 65.3% and the co-IP in untreated Preso1^−/− neurons, % of untreated WT (DHPG series) worked out at 47%.
